The test system of data set [1] is ~260 nt segment of the 5′-end of the viral genome sequence (virus start). Briefly: Ribozyme cleavage efficiency, test construct with longer ~260 nt virus start. Type of data set: biochemical, CVA21. To be noted: gel electrophoresis. As for the experimental part: (§1) Experiments were performed to optimize the ribozyme sequence at the 5′ junctional cleavage sequence region of the in vitro transcription template for CVA21 viral genome based on the test construct design according to FIG. 10B. Initially, a short, about 60 nt segment(S) of the 5′-end of the viral genome (“virus start”) was used to identify ribozymes that yielded high cleavage efficiency. […] Specifically, for an initial candidate ribozyme that yielded >90% cleavage efficiency in the test construct with short ˜60 nt virus start, it yielded only about 10-35% cleavage efficiency upon incorporation of the expression construct for the full-length viral genome. […] Thus, the test construct was redesigned to include a longer, about 260 nt segment (L) of the 5′-end of the viral genome sequence. […] Therefore, the test construct “L” with longer virus start better recapitulates the cleavage efficiency of the candidate ribozyme when incorporated into the full-length viral genome.
Further optimization was performed in the DNA template encoding ENT27 ribozyme, including: • Replacing the P2 motif “TTGGTT” of ENT27-WT with “TTTGTT” (ENT27-V1) or “TTTATT” (ENT27-V2, ENT27-V3, ENT27-V4) to complement the 5′ end of the viral start “UUAAA” after ribozyme cleavage. • Inserting additional nucleotides “GAAA” (ENT27-V3) or “ACGAGAAATCGT” (ENT27-V4) into the P3 stem insert of the ENT27 ribozyme. These optimizations are illustrated in FIG. 11A and FIG. 11B.
The cleavage efficiencies of these optimized ENT27 ribyzomes were analyzed using the test constructs with longer ˜260 nt virus start. The leader sequence used in these constructs include L1 (SEQ ID NO: 135) and L2 (SEQ ID NO: 136).

Data set [2] relates to full-length CVA21 viral genome RNA. Briefly: Ribozyme cleavage efficiency in the full-length CVA21 viral genome expression construct. To be noted: L1 leader sequence, RT-dPCR and RNA digest methods, vs control vector CVA21v1. Type of data set: biochemical. As for the experimental part:
as §1
ENV27-V2 ribozyme and L1 leader sequence was then incorporated into the CVA21 viral genome expression construct and tested for cleavage efficiency using both RT-dPCR and RNA digest methods.

Consider 4 molecules from patent publication US20250281556A1, “PRODUCTION OF RNA POLYNUCLEOTIDES ENCODING PICORNAVIRUS” (priority 2022, published 2025).

Bounds are passed on as bounds.

B1: ENV27-V3: ENV27 ribozyme variant, DNA SEQ ID NO: 133, TTTATT and GAAA inserted into P3 stem insert (nucleic acid)
DNA: ACTCGTTTGAGCGAGTATAAACAGTTTATTAGGCTCAAAGCGGAGAGCAGAGAAATCTGCTCTCG
modifications: expressed or natural sequence
As for B1, the cleavage efficiency result in data set [1] is on record as “improved the cleavage efficiency”.

B2: ENV27-V2: ENV27 ribozyme variant, DNA SEQ ID NO: 132, P2 motif TTTATT; tested with L1 leader sequence (nucleic acid)
DNA: ACTCGTTTGAGCGAGTATAAACAGTTTATTAGGCTCAAAGCGGAGAGCAGATCTGCTCTCG
modifications: expressed or natural sequence
For the molecule B2, the cleavage efficiency result in data set [1] is reported as “much better cleavage efficiency”; in data set [2], greater than 90%.

B3: ENV27-V4: ENV27 ribozyme variant, DNA SEQ ID NO: 134, TTTATT and ACGAGAAATCGT inserted into P3 stem insert (nucleic acid)
DNA: ACTCGTTTGAGCGAGTATAAACAGTTTATTAGGCTCAAAGCGGAGAGCAGAACGAGAAATCGTTCTGCTCTCG
modifications: expressed or natural sequence
B3: the cleavage efficiency result in data set [1] is listed as “improved the cleavage efficiency”.

B4: ENT27-WT: ENV27 ribozyme, corresponding DNA sequence SEQ ID NO: 130, P2 motif TTGGTT (nucleic acid)
DNA: ACTCGTTTGAGCGAGTATAAACAGTTGGTTAGGCTCAAAGCGGAGAGCAGATCTGCTCTCGTCCAA
modifications: further chemistry not given here
Take B4: the cleavage efficiency entry in data set [1] is listed as “promising candidate”.
